A short description of the series: label from the status in PepcDB records.
Regarding “MKNMDEERKYGLYSLIIGLLCVIGIVMLNGLICYVLYIIAVPSLLYGIGAFIIPKTRRKDAGKLPFRGY”, the protein production result is “failed”. Regarding “MKGIINMATFKQYKTKSGAFWEAFTSVGKDTNGKAKRMHKRGFKTKKEAQLWTSNVQTDFTKNGFIANDNITFAELYTKWFNEDYKEQVKESTYMITDDIFRLHILPELGSQRVKRITVAQCQSIVHKWLNQGFKTYRRFRTYAISVFDFGVRMELTTRNPMAKTSIPKQKTKPQAPHVDFYEKSELLHFLDCASKHENPQAFMFFRLLAFTGLRRGEALALQWSDINFETNELTVNKTQAVGKRWRTIIQTPKTNTSYRTIVLDPDTAQWLHKWKMTQARQCFELGFNANDPSQLVFTNQQNKLMSPSTVNYFNWSICKKYGLRHIKIHAFRHTFCTLAFEAHAGINEVSKTLGHADLKITEQIYLHVTKKQKNETASKLARYMSEL”, the protein production entry is “failed”. For “TKDFTWQTDWTFSLNNEKIKELAGGATYDSTGPWMVGEPLNSFYDFQYDRIWQNTQEDNHLMDVYRSLGLTFLPGQYKIVDQ”, the protein production entry is listed as “failed”.

For “MLAMHGSKEKMMTSYQTIIQNHQPLAPARYTAKRIIKNDAEALQIATELSQSFKEKSIQRDAERVLPFDEIEAFSQSGLWAITVPKRYGGAEVSSLTLAKIIALFSGVDGSIGQIPQNHFYALEVLRNTGTEQQKQRLYQEVLSGLRLGNALAEFKPKNASLKQTQIKAIETGYVINGEKFYCTGSLFAHRIPTLVIDEEGREYLAFVRSDSEGLSLIDNWTGFGQRVTGSGGVKFTQVFVAAEDVIPFDSAFQHPTLVGPFAQLMHAAIEVGIARAAFEEALKRVHAARPWIDSNVDAAAQDPLTIYEIGRVAADVHASEALLKHAALTIDEVRLNTNVETIAKASIAVAKIRAHSTETALKASSKLIELAGSRGSQSVDGLDRFWRNARVHTLHDAARWKYYFIGNYVLNDIFPPRRGTL”, the protein production result was “failed”.

For “MSLKIAVLDDYQDAVRKLDCFNLLQDHEVKVFNNTVKGVGQLAARVADVEALVLIRERTRVTRQLLDRLPKLKIISQTGRVSRDAGGHIDLDACTDKGVVVLEGKGSPVAPAELTWALVMAAQRRIPQYVASLKHGAWQQSGLKSTTMPPNFGIGRVLKGQTLGIFGYGKIGQLVAGYGRAFGMNVLVWGRENSKERARADGFAVAESKEALFEQSDVLSVHLRLNDETRSIITVADLTRMKPTALFVNTSRAELVEENGLVTALNRGRPGMAAIDVFETEPILQGHTLLRMENCICTPHIGYVERESYEMYFGIAFQNILDVLQGNVDSVANPTALAPALIRAEGHHHHHH”, the protein production entry is listed as “not failed”.

With “MNSAVGAELFMGDDGVSLRPGLGGTESVLESWRYIMGKLRVGRFLISSRVNGPGRRFVIWFQGCPIRCRGCLNPEFHDEDGGHLIETARLVDMIRDLRDEIEGVTFTGGEPLAQAMELVKLAGAVKSMGLTVVCFTGYEMDEILKGNIEGGLELLEFVDVLIDGPYIEEKSAPLLWRGSTNQDVYFLTERYAEFRDRVMACSEMEAELKVGADGVYMTGIFDVEFWEELRRRLGDGSLEHHHHHH”, the protein production entry is “failed”. Next, “MEFEMLETETNGTIIKVIGVGGAGGNAVQHMINKGVQGVDFVVMNTDAQALSRSRAPSVIQLGNTGLGAGAKPEMGRAAAEEARERIADALRGAHMVFITAGMGGGTGTGAAPVVAQIAKEMGILTVGVVSKPFEFEGGKRMRVAEAGSQQLEDHVDSLIVVLNDKLFEVMGDDAEMDKCFQCADDVLNNAVAGIAEIINVDGLVNVDFEDVKTVMGEQGKAMMGTATVAGVDRARLAAEQAVASPLLEGVDLSGARGVLVNITSSRSLRLSETREVMNTIKSYAADDATVIFGAVYDDAMGDALRVTVVATGLGRAAKKQQSAPMTLLRTGTDNQPISAAPQGYAASHHVSTGDYGAFDTPAVWRNSRETAASHVQALQEKGVDTYDIPAFLRKQAD”: “not failed”.

In the case of “MKTGDKQFAVIGLGRFGLAVCKELQDSGSQVLAVDINEDRVKEAAGFVSQAIVANCTHEETVAELKLDDYDMVMIAIGADVNASILATLIAKEAGVKSVWVKANDRFQARVLQKIGADHIIMPERDMGIRVARKMLDKRVLEFHPLGSGLAMTEFVVGSRLMGKTLSDLALCKVEGVQVLGFKRGPEIIKAPDMSTTLEIGDLIIVVGPQDKLANKLKSLLEHHHHHH”, the protein production result is reported as “failed”. As to “MATPTEHEDLSEQEVTEDEFKTPKIRETPEDIKLEAIVNTIAFHPKQDILAAGDIDGDIYLFSYSCTEGENKELWSSGHHLKSCRKVLFSSDGQKLFSVSKDKAIHIMDVEAGKLETRIPKAHKVPINAMLLIDENIFATGDDEGTLKVWDMRKGTSFMDLKHHEDYISDITIDQAKRTLLTSSGDGTLGVFNIKRRRFELLSEIQNGDLTSVSIMKRGRKVVCGSGEGTIYIFNWNGFGATSDRFAVQAESVDCIVPITDSILCAASTDGVIRAINILPNRVVGSIGQHVGEAIEEIARCRDTHFLASCAHDELIKFWDISSLPDEKVNDYRRRKKKDRRLKALSNKAFDTGQNFFAGLLDTTEENGKEGENDEDDDDEDSDSGSD”, the protein production entry is “not failed”. As to “MMTLSDLPSDLAEEVLSKIPVTSLRGVRATCKKWNTLSKDRSFTRKHLAQAKAAAAREFMVVMVMDFQVYLMGINLHKDVDATINGQGKLISLDDSNQVDISYVYHCDSLVLCIPKDCARLVVWNPYWGQTLWFKPTSLRHFPHWYMYAIGYQMRRGNRDAKTSRWLLTCRPTTKTITKNTIDHL”, the protein production entry is reported as “failed”. With “MNIRITNIQKQLHKYGIDGLLITKKENRQYATGFTGSAGVVLISADQAVFITDFRYVDQAKSQIQDAEIVMHKGNLEKEIAHQVSKLNIQKLGIEENNMTLQQYKNLQKYVHTEMIQVCEIIESIRIIKDTPEIETMKIAAHIADEAFHHILTFLKPGISENDVRDELEFFMRKKGATSSSFQIIVASGVRSSLPHGVASNKIIERSDIVTLDFGALYDGYCSDITRTVAIGEPSEEFKKIYNIVREALKRGTEAIKPGETAKRIDDITRNYITEHGYGQYFGHSTGHGLGLEIHEPLRLSQESKATLEEGMVVTVEPGIYIPNWGGCRIEDDIVITKDGYEVITKSNRELIVIPC”, the protein production entry is on record as “failed”. Turning to “MSLGVLRYTLRARGHPNVTAGHRTTFEVTVDPEIGETADCIIGVSSSDSISTLPDEMKRAIARESSLVRVILRTENGYDEIRGYGHPELTLDHPTDIVCRKSDYICSRTLMIRADKAAFDLDENLVRDLRKGRELKVEIIVEYEGHHHHHH”, the protein production entry is recorded as “not failed”. In the case of “MSHYQCAVCSSIDANPNSLAVNYQCLADSSVVGEFHVLPRHQGYTDLLHGGIASSLLDGAMTHCLLFRDIQALTAQLDVRYHAPIELDEHVTITAHCEGERRGIYQLVAQLLVNNEVRVTAKGKFIRPKLEHHHHHH”, the protein production entry was “not failed”.

For the sequence “GKRSHSMKRNPNAPVTKAGWLFKQASSGVKQWNKRWFVLVDRCLFYYKDEKEESILGSIPLLSFRVAAVQPSDNISRKHTFKAEHAGVRTYFFSAESPEEQEAWIQAMGEAARVQ”, the protein production entry is recorded as “not failed”. On to “MGRISSGGMMFKAITTVAALVIATSAMAQDDLTISSLAKGETTKAAFNQMVQGHKLPAWVMKGGTYTPAQTVTLGDETYQVMSACKPHDCGSQRIAVMWSEKSNQMTGLFSTIDEKTSQEKLTWLNVNDALSIDGKTVLFAALTGSLENHPDGFNFK”, for which the protein production entry is recorded as “not failed”. The value for “DRVLVPVANPNTEDNLLQLAIILTKSASGTLLPLHILLEENNPISPDAKAKQSQLLSTAEMIAHAAVVNVTPIGRIDESIDKGIARVAEEKQASAIICGWKGYSTYEENLFGGVIDKIVQRSFIPVLVSR” was “failed”. In the case of “MSVKKERVDVLLVERGLIETREKAKRAIMAGLVYANEMRLDKPGEKISQDTEITVKGQVMPYVSRGGYKLEKALETFHLDLQDKVMIDIGSSTGGFTDCALQNGAKLSYALDVGYNQLAWKLRQDERVVVMERTNFRYVTPADLERGLPQFASIDVSFISLKLILPVLKTMLMPNGDVAALIKPQFEAGREQVGKKGIVRDRKVHEAVVEMIVEFALKEGYDVEGLTFSPITGGDGNIEFLIHLKWHGERENGENHSPISIEQVVTEAHEVLKQKGKGE”, the protein production entry was “failed”.

These data come from a protein production outcome set (Wang et al. 2014).
